Conditions: Carica papaya, Thermal, DSC, glycine-HCl 5 mM, reversible: yes

Chain of Chymopapain wild type, P14080 (P14080 whole entry): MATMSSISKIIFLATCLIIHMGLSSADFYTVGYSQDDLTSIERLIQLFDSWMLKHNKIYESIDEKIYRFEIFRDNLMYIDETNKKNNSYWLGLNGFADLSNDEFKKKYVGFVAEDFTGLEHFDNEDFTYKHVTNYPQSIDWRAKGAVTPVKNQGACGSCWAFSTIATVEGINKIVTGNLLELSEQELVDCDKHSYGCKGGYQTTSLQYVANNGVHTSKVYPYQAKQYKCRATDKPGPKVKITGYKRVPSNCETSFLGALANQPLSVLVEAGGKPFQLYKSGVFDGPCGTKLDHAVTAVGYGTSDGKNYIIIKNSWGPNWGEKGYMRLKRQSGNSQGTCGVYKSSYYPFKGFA

Chymopapain wild type, P14080
Tm (pH 1.9): 69.3 °C | unfolding enthalpy (calorimetric) (pH 1.9): 147 kcal/mol | unfolding enthalpy (van 't Hoff) (pH 1.9): 88.3 kcal/mol | Tm (pH 2.4): 71.6 °C | unfolding enthalpy (calorimetric) (pH 2.4): 154 kcal/mol | unfolding enthalpy (van 't Hoff) (pH 2.4): 87.9 kcal/mol | Tm (pH 2.9): 78.3 °C | unfolding enthalpy (calorimetric) (pH 2.9): 175 kcal/mol | unfolding enthalpy (van 't Hoff) (pH 2.9): 95.2 kcal/mol | Tm (pH 3.5): 85.8 °C | unfolding enthalpy (calorimetric) (pH 3.5): 232 kcal/mol | unfolding enthalpy (van 't Hoff) (pH 3.5): 125 kcal/mol
